According to paper PMC2173848:

Biological target: GST-Ypt1p (S. cerevisiae) (UniProt P01123)
Test: pull-down

GST-Ypt1p (S. cerevisiae), sequence (P01123 whole entry): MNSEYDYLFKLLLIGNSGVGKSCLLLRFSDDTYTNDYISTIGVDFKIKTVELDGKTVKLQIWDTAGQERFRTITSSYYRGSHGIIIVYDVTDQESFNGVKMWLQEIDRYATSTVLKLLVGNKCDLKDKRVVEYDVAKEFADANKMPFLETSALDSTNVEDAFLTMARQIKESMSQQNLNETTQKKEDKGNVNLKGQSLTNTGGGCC

Q: For “purified Sec34/35 complex, P40094 1-801; P53271 1-262; Q06096 1-861; P53079 1-417; P53959 1-839”, which fold less binding than with GTP-loaded GST-Ypt1p is on record?
A: > 5 fold

Q: What about the percent of the complex bound of the same substance?
A: > 50%
